# Test results published in patent US7799901B2, “Modulators of the function of FAS receptors and other proteins” (Yeda Research and Development Co. Ltd., priority 1995, dated 2010).
# B1: MACHβ1: MACH isoform, cDNA SEQ ID NO: 4, amino acid SEQ ID NO: 5; lacks the CED3/ICE homology region (protein)
# chain: MDFSRNLYDIGEQLDSEDLASLKFLSLDYIPQRKQEPIKDALMLFQRLQEKRMLEESNLSFLKELLFRINRLDLLITYLNTRKEEMERELQTPGRAQISAYRVMLYQISEEVSRSELRSFKFLLQEEISKCKLDDDMNLLDIFIEMEKRVILGEGKLDILKRVCAQINKSLLKIINDYEEFSKERSSSLEGSPDEFSNDFGQSLPNEKQTSGILSDHQQSQFCKSTGESAQTSQH
# Key:
# MACHα1 = molecular target: T1, MACHα1 (Homo sapiens, UniProt Q14790); experiment: Two-hybrid β-galactosidase filter assay (FIG. 5), binding to MACHα1; conditions: two hybrid test
# T1 construct: expressed in transfected cells; host or cells: SFY526 yeast
# T1 sequence (Q14790 217-479): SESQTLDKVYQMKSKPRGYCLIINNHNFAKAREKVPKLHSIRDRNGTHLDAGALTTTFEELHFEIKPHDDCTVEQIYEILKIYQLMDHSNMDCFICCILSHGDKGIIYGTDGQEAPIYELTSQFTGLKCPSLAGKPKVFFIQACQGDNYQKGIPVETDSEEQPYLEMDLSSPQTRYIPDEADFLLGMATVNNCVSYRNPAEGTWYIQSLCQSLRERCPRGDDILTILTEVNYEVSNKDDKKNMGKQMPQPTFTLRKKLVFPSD
# Experimental: In FIG. 5, there is shown the results of the interaction of MORT-1 and MACH within transfected yeast cells. Briefly, MORT-1 and MACHβ1 and their deletion constructs, as well as MACHα1, a MACHα1 mutant in which the catalytic cysteine Cys360 is replaced by Ser (MACHα1 (C360S)) and the intracellular domain of human FAS-R (Fas-IC), were expressed within transfected SFY526 yeast in Gal4 DNA binding domain and activation domain constructs (pGBT9 and pGAD-GH). Their interaction was assessed by a β-galactosidase expression filter assay as described in Boldin et al (1995b). The results are presented in terms of the time required for the development of strong color. […] None of the inserts examined interacted with a number of tested negative controls, including the intracellular domains of human p55 TNF receptor, p75 TNF receptor and CD40, and lamin, cyclin D and ‘empty’ Gal4 vectors. MACHβ1 was cloned by two hybrid screening of a Gal4 AD-tagged human B cell library (Durfee et al, 1993) for proteins that bind to MORT-1, using the HF7c Yeast reporter strain. Except where otherwise indicated, all experimental procedures for the findings presented are as described above (see also Boldin et al, 1995). […] MACHβ1 also self-associated in the transfected yeast. […] Expression of MACHβ1 molecules in mammalian cells yielded a 34 kDa protein that bound to MORT-1 molecules co-expressed with it. […]
# Lamin = experiment: Two-hybrid β-galactosidase expression filter assay in SFY526 yeast, DNA-binding domain hybrid Lamin; conditions: specificity test
# Excerpt: To isolate proteins interacting with the intracellular domain of the FAS-R, the yeast two-hybrid system was used (Fields and Song, 1989). […] In this system, the genes for the candidate interacting proteins are cloned into separate expression vectors. In one expression vector, the sequence of the one candidate protein is cloned in phase with the sequence of the GAL4 DNA-binding domain to generate a hybrid protein with the GAL4 DNA-binding-domain, and in the other vector, the sequence of the second candidate protein is cloned in phase with the sequence of the GAL4 activation domain to generate a hybrid protein with the GAL4-activation domain. The two hybrid vectors are then co-transformed into a yeast host strain having a lacZ or HIS3 reporter gene under the control of upstream GAL4 binding sites. […]
# The yeast two-hybrid test was further applied to evaluate the specificity of binding of MACH to MORT-1, in particular, to define the region in MORT-1 to which MACH binds, as well as to determine which of the MACH ORFs interacts with MORT-1, the procedures being as set forth herein above in Examples 1 and 2. Briefly, various MORT-1 and MACH constructs were prepared for testing the interaction of the proteins encoded by the Gal4 DNA-binding domain and activation domain constructs within transfected SFY526 yeast cells as assessed by the β-galactosidase expression filter assay. […]
Molecule,binding to MACHα1 in transfected yeast (self-interaction) (MACHα1),development of color (interaction with DNA-binding domain hybrid) (Lamin)
"MACHα1: MACH isoform, cDNA SEQ ID NO: 14, amino acid SEQ ID NO: 7; contains CED3/ICE homology region",did not exhibit self-interaction,–
B1,–,−−− (“−−−” indicates the lack of development of color within 24 hrs. of the assay)
